Series [1] has as its system target cells. Description: Xenograft model in immunodeficient mice. The series is classed as in vivo. To be noted: TRAC-targeted T cells, versus construct SEQ ID NO: 23329. The text has this:
Animal models can also be used to measure SAR activity. For example, xenograft model using human cancer associated antigen described herein-specific SAR^+ T cells to treat a primary human pre-B-ALL in immunodeficient mice can be used. Dose dependent SAR treatment response can be evaluated. See, e.g., Milone et al., Molecular Therapy 17(S): 1453-1464 (2009). Assessment of cell proliferation and cytokine production has been previously described, e.g., at Milone et al., Molecular Therapy 17(S): 1453-1464 (2009). Cytotoxicity can be assessed by a standard ^51Cr-release assay or Matador assay. Imaging technologies can be used to evaluate specific trafficking and proliferation of SIRs in tumor-bearing animal models.
The cells expressing the SAR constructs are exposed to RAJI and L363 target cells and tested in functional assays as described above. […] It is also observed that co-expression of the constant chains of both TCRγ and TCRδ can also rescue the expresson of SARs on TFP backbone in αβ T cells in which the expression of endogeneous TCRα and/or TCRβ constant chains has been eliminated by insertion of the SAR expresson cassette at the endogenous TRAC or/and TRBC loci. Exemplary constructs to express TCRγ and TCRδ chains are provided in SEQ ID NO: 23333 and 23334, respectively.

Series [2] relates to target cell lines expressing a non-secretory form of a luciferase. Description: Assay for cytotoxic activity (Matador assay, luciferase release). The following applies: TRAC-targeted T cells, versus construct SEQ ID NO: 23329. The series is classed as cell-based. As to the method:
Cell lines engineered to express luciferases (e.g., GLuc or NLuc) for measuring cytotoxicity of different constructs targeting different cell surface and intracellular antigens are provided in Table C-1. Cells were cultured at 37° C., in a 5% CO2 humidified incubator. The cell lines were obtained from ATCC, NIH AIDS reagent program or were available in the laboratory.
The generation of Chimeric antigen receptor (e.g., 2nd generation CARs, SIRs, Ab-TCR and TFP etc.), the generation and use of GGS-NLuc fusion proteins (Topanga and Malibu-Glo assays), and the generation and use of luciferase (e.g., GLuc) reporter cell lines for measurement of cellular cytotoxicity using the Matador assays have been described (PCT/US2017/024843, PCT/US2017/025602, PCT/US2017/052344, PCT/US2017/064379 and PCT/US2018/53247).
(C) Assay for Cytotoxic Activity in vitro and in vivo: The uninfected T cells or those expressing a control vector or SAR are cocultured with the target cell lines expressing a non-secretory form of a luciferase (such as GLuc, NLuc, Turboluc 16 etc.) for 4-96 hours and induction of cell lysis examined by measuring the luciferase activity as described in PCT/US17/52344.

The test system of series [3] is HepG2 cells. It is filed as cell-based.
The test system of series [4] is Raji cells expressing a membrane anchored scFv targeting Dsg3. Description: JNG assay, co-culture with Raji cells expressing a membrane anchored scFv targeting Dsg3. It is filed as cell-based. To be noted: compared to parental Raji cells. As for the experimental part:
Cellular supernatant is collected and assayed for the induction of cytokines (e.g., IL2).
JNG (Jurkat cells expressing EGFP under an NFAT promoter) were infected with lentiviral vectors encoding different single chain and multi-chain SARs by spinfection in the presence of 8 µg/ml of Polybrene® (Sigma, Catalog no. H9268). The Jurkat-NFAT-GFP cells are engineered in such a way that the IL-2 promoter, which carries NFAT binding sites, is cloned upstream of the GFP gene. These cells have been used to study signaling via TCR and CAR. The different SARs were stably expressed in Jurkat NFAT-GFP cells by lentiviral mediated gene transfer, followed by selection with puromycin or blasticidin. No drug selection was used in case the construct lacked an antibiotic resistance gene. […] GFP expression was monitored by FACS analysis. […] The structure of different constructs can be determined based on their names. […] The sequence of the other constructs in the table can be similarly determined from their names and by referring to the different Tables of this disclosure that provide the names and SEQ ID NO of the different modules. Alternatively, the composition and modular architecture of the different SAR constructs can be determined from their sequences by bioinformatics tools, including using nucleic acid and amino acids homology searches. […]

This is an account of results in patent US20230212319A1, “NOVEL ANTIGEN BINDING DOMAINS AND SYNTHETIC ANTIGEN RECEPTORS INCORPORATING THE SAME” (University of Southern California, priority 2020, published 2023).

B1: SEQ ID NO: 23330: targeting construct coexpressing a TCRα constant chain with a SAR on TFP backbone targeting BCMA and CD22, directed to the TRAC locus (protein)
chain: FKIPIEELEDRVFVNCNTSITWVEGTVGTLLSDITRLDLGKRILDPRGIYRCNGTDIYKDKESTVQVHYRMCQSCVELDPATVA
For the molecule B1, the “in vivo anti-tumor activity against the target cells” value in series [1] is “greater”. In series [2], the cytotoxicity entry is reported as “greater”.

B2: 22257 (protein)
chain: MGPRLLFWALLCLLGTGPVEAGVTQSPTHLIKTRGQQATLRCSPISGHTSVYWYQQALGLGLQFLLWYDEGEERNRGNFPPRFSGRQFPNYSSELNVNALELEDSALYLCASSLGGPRGLAGLRGDEQFFGPGTRLTVLEGTGGGGSGGGEFDIQMTQSPSSLSASVGDRVTITCKASDHINNWLAWYQQKPGQAPKLLIYGATTLETGVPSRFSGSGSGTDYTLTISSLQPEDFATYYCQQSWNTPWTFGQGTKLEIKRLEGQPKANPTVTLFPPSSEELQANKATLVCLISDFYPGAVTVAWKADGSPVKAGVETTKPSKQSNNKYAASSYLSLTPEQWKSHRSYSCQVTHEGSTVEKTVAPTECSGRADCGFTSESYQQGVLSATILYEILLGKATLYAVLVSALVLMAMVKRKDSRGRAKRSGSGATNFSLLKQAGDVEENPGPTSATMDWIWRILFLVGAATGAHSGPQVQLQESGGGLAQAGGSLRLSCAASGRTFSMGWFRQAPGKEREFVAAITYSGGSPYYASSVRGRFTISRDNAKNTVYLQMNSLKPEDTAVYYCAANPTYGSDWNAENWGQGTQVTVSSGSGGGGSGGGGSGGGGSFEQVQLQQPGAELVKPGASVKMSCKASGYAFSSYWINWMKQKPGQGLEWIGQIYPGDGDTNYNGKFKGRATLTADTSSSTAYMQLSSLTSEDSAVYFCARSITTVVGCAMDYWGQGTSVTVSSTRASTKGPSVFPLAPSSKSTSGGTAALGCLVKDYFPEPVTVSWNSGALTSGVHTFPAVLQSSGLYSLSSVVTVPSSSLGTQTYICNVNHKPSNTKVDKRVEPKSCIPEDTFFPSPESSCDVKLVEKSFETDTNLNFQNLSVIGFRILLLKVAGFNLLMTLRLWSSRAKRSGSGVKQTLNFDLLKLAGDVESNPGPSRGHMTEYKPTVRLATRDDVPRAVRTLAAAFADYPATRHTVDPDRHIERVTELQELFLTRVGLDIGKVWVADDGAAVAVWTTPESVEAGAVFAEIGPRMAELSGSRLAAQQQMEGLLAPHRPKEPAWFLATVGVSPDHQGKGLGSAVVLPGVEAAERAGVPAFLETSAPRNLPFYERLGFTVTADVEVPEGPRTWCMTRKPGA
For the molecule B2, the “NFAT-GFP ASSAY: HepG2” value in series [3] was “RAJI (2+), HepG2 (-/^+)”.

B3: CD8SP-Dsg3-EC1-EC2-L693-IgCL-TCRb-wt2-opt-6MD-F-P2A-IgHSP-CD20-vHH2-HCD25-G4S-CD19-hu-mROO5-1-vH-IgG1-CH1-TCRa-wt2-opt-6MD-F-F2A-PAC (protein)
chain: MALPVTALLLPLALLLHAARPACEWVKFAKPCREGEDNSKRNPIAKITSDYQATQKITYRISGVGIDQPPFGIFVVDKNTGDINITAIVDREETPSFLITCRALNAQGLDVEKPLILTVKILDINDNPPVFSQQIFMGEIEENSASNSLVMILNATDADEPNHLNSKIAFKIVSQEPAGTPMFLLSRNTGEVRTLTNSLDREQASSYRLVVSGADKDGEGLSTQCECNIKVKDVNDNFPMFRDSLEGQPKANPTVTLFPPSSEELQANKATLVCLISDFYPGAVTVAWKADGSPVKAGVETTKPSKQSNNKYAASSYLSLTPEQWKSHRSYSCQVTHEGSTVEKTVAPTECSGRADCGFTSESYQQGVLSATILYEILLGKATLYAVLVSALVLMAMVKRKDSRGRAKRSGSGATNFSLLKQAGDVEENPGPTSATMDWIWRILFLVGAATGAHSGPQVQLQESGGGLAQAGGSLRLSCAASGRTFSMGWFRQAPGKEREFVAAITYSGGSPYYASSVRGRFTISRDNAKNTVYLQMNSLKPEDTAVYYCAANPTYGSDWNAENWGQGTQVTVSSGSGGGGSGGGGSGGGGSFEQVQLQQPGAELVKPGASVKMSCKASGYAFSSYWINWMKQKPGQGLEWIGQIYPGDGDTNYNGKFKGRATLTADTSSSTAYMQLSSLTSEDSAVYFCARSITTVVGCAMDYWGQGTSVTVSSTRASTKGPSVFPLAPSSKSTSGGTAALGCLVKDYFPEPVTVSWNSGALTSGVHTFPAVLQSSGLYSLSSVVTVPSSSLGTQTYICNVNHKPSNTKVDKRVEPKSCIPEDTFFPSPESSCDVKLVEKSFETDTNLNFQNLSVIGFRILLLKVAGFNLLMTLRLWSSRAKRSGSGVKQTLNFDLLKLAGDVESNPGPSRGHMTEYKPTVRLATRDDVPRAVRTLAAAFADYPATRHTVDPDRHIERVTELQELFLTRVGLDIGKVWVADDGAAVAVWTTPESVEAGAVFAEIGPRMAELSGSRLAAQQQMEGLLAPHRPKEPAWFLATVGVSPDHQGKGLGSAVVLPGVEAAERAGVPAFLETSAPRNLPFYERLGFTVTADVEVPEGPRTWCMTRKPGA
B3: in series [4], the GFP induction result is “increased GFP induction”.
